The text below walks through data of patent publication US12122830 (ABL BIO, dated 2024).

For test [1], the target named is T1, recombinant ROR1-His (Sino Biological, 13968-H08H) (human, UniProt Q01973 30-406).
T1 construct: extracellular domain; Bought; also called human ROR1 antigen; not shown: His tag
The test is described as follows: BLI (Octet), ROR1-His loaded on biosensor, IgG in solution, 1:1 fitting. The protocol: A 96 well black microplate (greiner bio one) in a biosensor tray case was installed, and 200 µl of 10×KB or D.W was put in 8 wells each. 8 sensors, Anti Penta His biosensors or AR2G biosensors (ForteBio, USA), were placed for 10 min for hydration. 600 µl of Analytic samples were diluted 2 folds or 3 folds to desired concentrations. It was diluted using 1×KB or 10×KB to reach a concentration of 30~0.021 nM. For antigen fixation, 1 µg/mL of a recombinant ROR1-His (Sino Biological, 13968-H08H) was diluted with 10×KB or Sodium Acetate pH5 buffer. For fixation, threshold was set to be 0.3 nmat the loading step. The experiment was performed for 3 min~10 min of association and for 20 min of dissociation. The prepared buffer was put into a new 96 well black microplate in accordance with octet program template in order. 10×KB or D.W 200 µl used as Baseline1 was put. 200 µl of the antigen ROR1-His protein (1 µg/mL) was loaded. 10×KB or D.W 200 µl used as Baseline2 was put. 200 µl of 10×KB buffer or 1×KB corresponding the diluted antibody in 30~0.021 nM, Reference blank was put into each well. The temperature of the experimental plate was fixed at 30° C. After placing all samples, the device was activated. After the experiment was finished, the result was uploaded on Octet Analysis 9.0 software, and then KD value was calculated using 1:1 fitting, and the result was described in the following Table 6. […]
Background: Biolayer interferometry detects binding as a change in optical thickness at a sensor tip.

Test [2] deals with T2, human ROR1 expressed on the cell surface (human, UniProt Q01973 30-937).
T2 construct: whole, on cells; On JeKo-1 and Mino cells and other cancer cell lines (endogenous) and on transfected CHO and MC38 cells; also called cell surface-expressed ROR1; CHO-human ROR1
In words: flow cytometry on Calu-6 cells (lung cancer), C2E3 IgG at 10 µg/mL, MFI of anti-ROR1 / MFI of 2nd Ab. How it is done: (§1) For the cell lines, the binding to ROR1 was analyzed with FACS (FACSCalibur, BD Biosciences) by using the anti-ROR1 antibody of the present invention.
(§2) Specifically, after disassociating each cell line and washing in PBS, the number of cells was counted and set as 2 ×10^5 cells/200 µl PBS, and then the clone C2E3 among ROR1 monoclonal antibodies prepared in Example 3 was treated in 10 µg/mL, and it was reacted at 4° C. for 1 hour. After reaction, cells were washed in PBS, and then the FITC-labeled constant region (Fc)-specific antibody (Goat anti-human IgG FITC conjugate, Fc specific, Sigma, F9512, concentration: 2.0 mg/ml) was suspended in 2 µl/1 ×10^5 cells/200 µl PBS, and it was reacted at 4° C. for 1 hour. After reaction, cells were washed in PBS, it was analyzed using a FACSCalibur device. The negative control group was treated only with the FITC-labeled constant region (Fc)-specific antibody. To compare the expression degrees of ROR1 among the cancer cell lines, the value of the result for the peak shift in the experimental group treated with the ROR1 monoclonal antibody (C2E3) of the present invention was divided by the result for the peak shift in the control group (Mean Fluorescence Intensity Ratio MFI Ratio: MFI of anti-ROR1/MFI of 2nd Ab).

In test [3] the target is T2, human ROR1 expressed on the cell surface. The test is described as follows: flow cytometry on BT20 cells (breast cancer), C2E3 IgG at 10 µg/mL, MFI of anti-ROR1 / MFI of 2nd Ab. How it is done: as §1, §2
Test [4] has the same target. The test is described as follows: flow cytometry on NCI-N87 cells (gastric cancer), C2E3 IgG at 10 µg/mL, MFI of anti-ROR1 / MFI of 2nd Ab. How it is done:
as §1, §2
(A flow cytometer gives signals particle by particle.)

For test [5] the target is unchanged. The test is described as follows: flow cytometry on HT29 cells (colon cancer), C2E3 IgG at 10 µg/mL, MFI of anti-ROR1 / MFI of 2nd Ab. How it is done:
as §1, §2

Test [6] shares this target. The test is described as follows: flow cytometry on Mino cells (MCL), C2E3 IgG at 10 µg/mL, MFI of anti-ROR1 / MFI of 2nd Ab. How it is done: as §1, §2
For test [7] the target is unchanged. The test is described as follows: flow cytometry on MDA-MB-468 cells (breast cancer), C2E3 IgG at 10 µg/mL, MFI of anti-ROR1 / MFI of 2nd Ab. The protocol:
as §1, §2

Test [8] has the same target. The test is described as follows: flow cytometry on SNU-16 cells (gastric cancer), C2E3 IgG at 10 µg/mL, MFI of anti-ROR1 / MFI of 2nd Ab. The protocol: as §1, §2
Test [9] shares this target. The test is described as follows: flow cytometry on H460 cells (lung cancer), C2E3 IgG at 10 µg/mL, MFI of anti-ROR1 / MFI of 2nd Ab. How it is done: as §1, §2
For test [10] the target is unchanged. In words: flow cytometry on Kasumi-2 cells (ALL), C2E3 IgG at 10 µg/mL, MFI of anti-ROR1 / MFI of 2nd Ab. The protocol: as §1, §2

T2 sequence (Q01973 30-937): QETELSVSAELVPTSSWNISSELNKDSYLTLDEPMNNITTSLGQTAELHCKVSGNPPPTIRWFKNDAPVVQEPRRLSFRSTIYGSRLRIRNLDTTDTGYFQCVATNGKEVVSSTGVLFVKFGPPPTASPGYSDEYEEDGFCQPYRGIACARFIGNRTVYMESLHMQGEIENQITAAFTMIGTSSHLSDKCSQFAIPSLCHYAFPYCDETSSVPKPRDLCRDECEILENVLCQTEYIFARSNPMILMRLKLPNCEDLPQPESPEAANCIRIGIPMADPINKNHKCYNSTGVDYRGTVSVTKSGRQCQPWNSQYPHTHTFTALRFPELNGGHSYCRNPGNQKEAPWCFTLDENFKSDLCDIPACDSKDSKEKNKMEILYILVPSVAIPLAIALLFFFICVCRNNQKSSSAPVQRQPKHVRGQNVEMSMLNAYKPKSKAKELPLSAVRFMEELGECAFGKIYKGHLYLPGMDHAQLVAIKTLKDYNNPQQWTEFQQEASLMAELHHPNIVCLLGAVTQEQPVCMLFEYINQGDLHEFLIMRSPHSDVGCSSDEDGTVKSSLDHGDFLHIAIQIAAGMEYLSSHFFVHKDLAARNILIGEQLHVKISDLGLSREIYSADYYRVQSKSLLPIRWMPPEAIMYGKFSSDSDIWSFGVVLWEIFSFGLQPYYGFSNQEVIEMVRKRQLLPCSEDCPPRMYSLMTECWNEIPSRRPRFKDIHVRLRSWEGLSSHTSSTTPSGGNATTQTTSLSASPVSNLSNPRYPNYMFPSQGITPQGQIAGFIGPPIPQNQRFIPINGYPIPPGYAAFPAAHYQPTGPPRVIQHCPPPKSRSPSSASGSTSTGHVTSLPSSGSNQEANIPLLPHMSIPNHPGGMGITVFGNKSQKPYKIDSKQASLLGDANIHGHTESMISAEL
T1 sequence (Q01973 30-406): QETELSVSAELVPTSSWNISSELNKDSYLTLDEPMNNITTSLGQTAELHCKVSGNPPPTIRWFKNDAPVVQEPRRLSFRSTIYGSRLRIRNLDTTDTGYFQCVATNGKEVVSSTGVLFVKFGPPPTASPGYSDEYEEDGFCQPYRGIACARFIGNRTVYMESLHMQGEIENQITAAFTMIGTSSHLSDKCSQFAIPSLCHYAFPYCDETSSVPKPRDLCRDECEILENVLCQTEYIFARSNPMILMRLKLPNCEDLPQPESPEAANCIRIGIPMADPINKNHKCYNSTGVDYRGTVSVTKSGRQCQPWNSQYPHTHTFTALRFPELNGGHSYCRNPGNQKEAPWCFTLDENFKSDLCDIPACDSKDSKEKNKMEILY

B1: C2E3 anti-ROR1 IgG antibody (antibody, V domains shown)
VH: EVQLLESGGGLVQPGGSLRLSCAASGFTFSNYAMSWVRQAPGKGLEWVSSISHNSGSTYYADSVKGRFTISRDNSKNTLYLQMNSLRAEDTAVYYCAKFISARKSLGRSYSNGMDVWGQGTLVTVSS
VL: QSVLTQPPSASGTPGQRVTISCTGSSSNIGSNDVTWYQQLPGTAPKLLIYADSKRPSGVPDRFSGSKSGTSASLAISGLRSEDEADYYCGTWDYSLSGYVFGGGTKLTVLG
The Kd is the concentration at which binding is half-saturated. Usually koff stands for a measure of how fast the partners let go of each other. For the molecule B1, in test [1], the Kd amounted to 0.424 nM. The koff in [1] came to 0.00231 s⁻¹. In addition, the “Mean Fold Ratio” value in test [2] stood at 3.3; in test [3], 3; in test [4], 11.8; in test [5], 3.9; in [6], 7.2; in [7] it was 6.4. For the same molecule, the “Mean Fold Ratio” value in test [8] stood at 2.4; in [9] it was 10.9; in test [10] it was 11.5.
